Consider 83 variants from the RNAGym collection of RNA variant scans (doi:10.1073/pnas.2313332121).

B1: TPR t1 (parent)
chain: GACCAAUCUGCCCUCAGAGCUCGAGAACAUCUUCGGAUGCAGAGGAGGCAGGCUUCGGUGGCGCGAUAGCGCCAACGUCCUCAACCUCCAAUGCAUCCCACCACAUGAUGAUGCCUGAAGAGCCUUGGUUUUUUG

Variants of B1 are the subject of the data set. Description: polymerase ribozyme fitness, log enrichment relative to wild type (log ratio); higher = more active; in vitro selection for triplet polymerase activity. Summed up: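 Each subunit of a heterodimeric triplet polymerase ribozyme was represented by a PCR-built, transcribed mutant library that underwent triplicate single-round in vitro selection with frozen incubation at −7 °C. Extended constructs were recovered by gel excision, streptavidin-bead capture and RT-PCR, and Illumina sequencing of input and output libraries kept genotypes with ≥10 input reads and ≥1 read per output. Fitness is the logarithm of genotype enrichment relative to wild-type enrichment, from inverse-variance-weighted replicate averages, with a logarithm base of 2.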
Turning to C56U U112C, the “polymerase ribozyme fitness (log ratio)” value was 0.364.

Turning to G58C C123G G128A, the “polymerase ribozyme fitness (log ratio)” value turned out to be 0.535. To G58A C102U C114A belongs -4.78; to G57A G113C U133A, -3.86; to U59G A66C C101G A121C U132C, -2.35. With G57C U106A the figure was -0.376; with G60A C72G U92C G93A, -4.92; with G57A C80U, -1.38.

Turning to G58A U96A, the “polymerase ribozyme fitness (log ratio)” value is -0.747. With G57A C73U G110A the figure was -2.06. To G60A A84U C115A U131G belongs -0.704; to U59A C76U, -0.808. To U59A C104A G110U C115A belongs -4.57. For G60A C70U, the “polymerase ribozyme fitness (log ratio)” value was -1.22.

For the variant G60A C70A, the “polymerase ribozyme fitness (log ratio)” value was -3.02. With U59G U112G G113A G120U the figure was -4.31; with G57U C82A C123U, 0.32.

G58U C124A: the “polymerase ribozyme fitness (log ratio)” value amounted to 1.26. To U59A C89A C101U G113U belongs -3.68. Regarding U59G U78A, the “polymerase ribozyme fitness (log ratio)” value is 0.3. Regarding G57A U59G, the “polymerase ribozyme fitness (log ratio)” value is -0.399. With G57C A121C the figure was 1.63; with U59G C76U G110U, -2.81; with G57A G69U C97A U132C, -3.61. With G58U A75U C79A C89A G120C C123U the figure was -4.72; with G57A C82A, -0.596; with G57U C94A C98U C115U, -5.64. To G57U C89U belongs -0.78; to U59C C72G A118C, -3.55; to G58C U81A C123A, -0.0338. G57U C73U G127U: the “polymerase ribozyme fitness (log ratio)” value was -1.28.

For G57U G69A, the “polymerase ribozyme fitness (log ratio)” value is -2.73. To G57U G69C belongs -0.847; to G58C U59G C70A C86G, -2.75. For the variant U59C C94A, the “polymerase ribozyme fitness (log ratio)” value is -1.01. With G60A A105C C115U the figure was -5.65; with G58A C62U C88U, -0.946; with U59G C72G, -2.51.

With G57A C98G U112A, the “polymerase ribozyme fitness (log ratio)” value was -6.12. To G57A G60U C88U C94U belongs -1.24; to U59G C86U, 0.709. To U59G G113U U126A belongs -3.87; to G57U C72A C88U, -1.77. For G57C G69A, the “polymerase ribozyme fitness (log ratio)” value is -3. With G57U U129G the figure was -1.65; with G60A A95U, -0.238; with G60A A95G, -0.00276. To U59C C80A U81A belongs -2.03. To G57C G61A G110U C115A belongs -2.7. As to G60A A111C C123A, the “polymerase ribozyme fitness (log ratio)” value is -1.91.

U59G U96A G128A: the “polymerase ribozyme fitness (log ratio)” value was -2.77. To G58U G63A C94U belongs -0.678. With G58C C62U U133A the figure was -0.0723; with U59G G71U G120C U130A, -4.75. As for U59A U126C, the “polymerase ribozyme fitness (log ratio)” value is -1.31.

Take G58U C99U G117C U131C: the “polymerase ribozyme fitness (log ratio)” value is -5.92. On to U59A C79U G110A A119C, for which the “polymerase ribozyme fitness (log ratio)” value is -3.05. To G60A A83C C101G G128C belongs -4.75. To U59A G77A C79U U87C C114U belongs -3.41; to G57U A68G, -3.27. Take G57U G69U C115U G128A: the “polymerase ribozyme fitness (log ratio)” value was -1.11. As to G60A A121G, the “polymerase ribozyme fitness (log ratio)” value came to 1.66. As to G57A G58C G63A C89A, the “polymerase ribozyme fitness (log ratio)” value is -6.16.

As for G60A C72G, the “polymerase ribozyme fitness (log ratio)” value is -1.01. With G57A G93U the figure was -1.69; with G57C G60A G117U, -2.47; with G58A G60A C99U U130A, -5.34.

Consider G58C U112C A121G, for which the “polymerase ribozyme fitness (log ratio)” value came out at 1.44.

In the case of G58A C89G, the “polymerase ribozyme fitness (log ratio)” value is -2.2. To G57A C97U belongs -1.83. Turning to G58C G113U, the “polymerase ribozyme fitness (log ratio)” value was -2.87. With U59C A111C G128C the figure was -3.24. With G57C U92G G117A the figure was -3.55; with G57C C104U, 0.227.

Consider G57A A90C C104A G113C G117C, for which the “polymerase ribozyme fitness (log ratio)” value is -6.59. On to C56U U125C, for which the “polymerase ribozyme fitness (log ratio)” value was -2.74. For U59C C88U, the “polymerase ribozyme fitness (log ratio)” value is -0.959. Regarding U59A A121C, the “polymerase ribozyme fitness (log ratio)” value is 2.1. To U59G C85U U87A U106A belongs -0.914; to G58C A66G, -0.999; to G57A G58A, -0.357.

As for U59A C82U A111G, the “polymerase ribozyme fitness (log ratio)” value is -0.386.

As to U59A A74G C114G U126A G128A, the “polymerase ribozyme fitness (log ratio)” value was -3.97.
